Positions of bridges follow the written chain, without caps; N, C: chain ends. Non-standard residues stand in square brackets, D forms with d. thiazoline = not defined here Some results are limits rather than exact numbers.

Results on three molecules are retold here after patent US20200040039A1 (FUJIFILM, published 2020).

For assay [1], the target named is T1, MCL-1 (amino acid 1-172 portion) with a His6 tag, MBP and a TEV protease recognition sequence on the N … (UniProt Q07820 1-172).
T1 construct: range 1-172; Expressed in E. coli BL21 (DE3) RIPL, purified on Ni-NTA, dialysed; tags are not reported as removed; Immobilised by amine coupling on a CM5 chip for SPR; A different construct (3xFLAG-tagged, His6/MBP cleaved) was used for panning only; also called target protein; not shown: His6 tag from the pET28a construct; no cleavage is described for this preparation
T1 sequence (Q07820 1-172): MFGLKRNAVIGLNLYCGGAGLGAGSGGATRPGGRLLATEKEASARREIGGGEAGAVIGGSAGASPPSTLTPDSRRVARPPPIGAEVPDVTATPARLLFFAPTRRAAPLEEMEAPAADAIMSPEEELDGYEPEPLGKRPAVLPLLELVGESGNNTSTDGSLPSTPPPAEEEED
The experiment in a line: SPR, Biacore T200, Mcl-1 immobilised on CM5, peptide as analyte, equilibrium analysis, as for Table 51; grade A = KD of less than 50 µmol/L.

The target in assay [2] is T1, MCL-1 (amino acid 1-172 portion) with a …. The experiment in a line: SPR, Biacore T200, 25 C, Mcl-1 amine-coupled on CM5, peptide as analyte, equilibrium analysis; grade B = KD of 50 µmol/L or more. Here is the method:
A buffer obtained by adding dimethylformamide (DMF) or dimethylsulfoxide (DMSO) to a final concentration of 1 vol % to HBS-EP+(manufactured by GE Healthcare Inc.) was used as a running buffer. Mcl-1 was immobilized on a Biacore Sensor Chip Series S Sensor Chip CM5 (manufactured by GE Healthcare Inc.) using an Amine Coupling Kit (manufactured by GE Healthcare Inc.). In order to measure the dissociation constant (KD), each synthetic peptide was added at multiple concentrations to obtain a sensorgram of binding to immobilized Mcl-1.
The analysis of the obtained sensorgram was carried out using T200 evaluation software (manufactured by GE Healthcare Inc.). Solvent correction to DMF or DMSO was carried out, and then the KD was determined by equilibrium value analysis using a sensorgram obtained by subtracting the sensorgram to a flow cell in which Mcl-1 is not immobilized.

B1: Cyclic peptide a-6-1 (peptide)
peptide: CEYCDPTFWPLFRR[3‑(5-cyanothiophen-3-yl)alanine]-NH2
modifications: bridge N-15 via thiazoline; cysteine pairing not given here; reading uncertain
notes: MS 1993.3 (M+H); Structure itself only in a drawing
As to B1, the Kd (usually the concentration at which binding is half-saturated) in assay [1] is less than 50 µM.

B2: Cyclic peptide a-5-3 (peptide)
peptide: CFALLWPQFLPLAF[3‑(6-cyanopyridin-2-yl)Ala]-NH2
modifications: bridge N-15 via thiazoline; reading uncertain
notes: MS 1821.3 (M+H); Structure itself only in a drawing
B2 returned a Kd in assay [2] not below 50 µM.

B3: Cyclic peptide a-5-1 (peptide)
peptide: CRSWACLWPAFLWY[3‑(6-cyanopyridin-2-yl)Ala]-NH2
modifications: bridge N-15 via thiazoline; cysteine pairing not given here; reading uncertain
notes: MS 1957.6 (M+H); Structure itself only in a drawing
B3: the Kd in assay [2] is not below 50 µM.
